target: HLA-A2.1 (human, UniProt A*02:01); assay: competition on EA2 cells: test peptide (100 mM [sic]) vs M1 58-66 (1 mM [sic]); % inhibition of CTL clone 12 lysis, E:T 0.3:1

Binder	% inhibition of A2.1-binding of M1 (58-66) [%]
VAPAPAAPT [hu-wt-p53 73-81]	12
LMLSPDDIEQ [hu-wt-p53 43-52]	25
VTCTYSPAL [hu-wt-p53 122-130]	12
ITLEDSSGNL [hu-wt-p53 255-264]	24
NTFRHSVVV [hu-wt-p53 210-218]	43
QLAKTCPVQ [hu-wt-p53 136-144]	15
RMPEAAPPV (also called hu-wt-p53 65-73; hu-p53.65-73) [p53.65-73]	62
AAPPVAPAPA [hu-wt-p53 69-78]	41
AIYKQSQHM [hu-wt-p53 161-169]	12
VLSPLPSQA [hu-wt-p53 31-39]	38
RLGILHSGTA [hu-wt-p53 110-119]	10
AAPPVAPA [hu-wt-p53 69-76]	46
LLPENNVLSPL (also called hu-wt-p53 25-35; hu-p53.25-35) [p53.25-35]	65
VLSPLPSQAM [hu-wt-p53 31-40]	23
GLAPPQHLI [hu-wt-p53 187-195]	62
LLPENNVLS [hu-wt-p53 25-33]	42
GTAKSVTCT [hu-wt-p53 117-125]	12
PLDGEYFTL (also called hu-p53.322-330) [hu-wt-p53 322-330]	24
AAPTPAAPA [hu-wt-p53 78-86]	51
NLLGRNSFEV [hu-wt-p53 263-272]	50
STPPPGTRV [p53.149-157]	29
LLGRDSFEV (also called mur-p53.261-269) [mur-wt-p53 261-269]	75
WVDSTPPPGT [hu-wt-p53 146-155]	10
AAPPVAPAPAA [hu-wt-p53 69-79]	4
DLMLSPDDI [hu-wt-p53 42-50]	19
EMFRELNEA [hu-wt-p53 339-247]	12

Source: patent publication US20030064916A1 (Scripps Research, published 2003)
